# Laboratory results taken from patent US20240181058A1, “[…] ANTIGEN RECEPTOR TARGETING ONCOLYTIC VIRUS-DERIVED PROTEIN, […], AND USES OF BOTH” (priority 2021, published 2024).
# B1: Ab18 (protein)
# scFv: QVQLVESGGGLVQPGKSLRLSCAASGFTFSTYGMTWVRQAPGKGLEWVSGISGGGSSTNYADSVKGRFIISRDNSNNTLYLQMNSLRAEDTAVYYCARWGVMLSFDYWGQGTPVTVSSGLGGLGGGGSGGGGSGGSSGVGSDIQMTQSPSTLPASVGDRVTITCRASYSVSPWLAWYQQKPGKAPKLLIYKASTLESGVPSRFSGSGSGTEFTLTISSLQPDDFATYYCQQFNSYMMYTFGQGTKLEIK
# modifications: amino acid sequence for anti-UTTA scFv (Ab18)
# B2: Ab13 (protein)
# scFv: QMQLVESGAEVKKTGSSVKVSCKASGDTLTYRFLHWVRQAPGQAPEWMGWITPFNDNTNYAQKFQDRVTITRDRSMSTAYMELSSLRSEDTAVYYCATGGGNNYYGMEVWGQGTPITVSSGLGGLGGGGSGGGGSGGSSGVGSSYELTQPLSLSVSPGQTASITCSGDKLGDKFTSWYQQQPGQSPVLVIYQDAKRPSGIPERFSGSNSGSTATLTISGTQSMDEADYYCQAWDSSSVVFGGGTKLTVL
# modifications: amino acid sequence for anti-UTTA scFv (Ab13)
# B3: Ab19 (protein)
# scFv: QVQLVESGAEVRRPGSSVKVSCKTSGVTFSGYVLSWVRQAPGHGLEWMGRIIPLIDVENYAREFQGRMKITADKSTNTVYMELNNLRSEDTAVYYCAKSVVRGLDYYYYGFDVWGQGTTVTVSSGLGGLGGGGSGGGGSGGSSGVGSSYELTQPPSLSVAPGKTARITCGGNNIGSKSVHWYQQKPGQAPRLVTYYDGNRPSGIPERFSGSNSGNTATLIISRVEAGDEADYYCQVWDSSSDQGVFGTGTKVTVL
# modifications: amino acid sequence for anti-UTTA scFv (Ab19)
# B4: Ab16 (protein)
# scFv: QVQLQQSGPGLVKPSQTLSLTCAISGDSVSSNSAAWNWIRQSPSRGLEWLGRTYYRSKWYNDYAVSVKSRITINPDTSKNQFSLQLNSVTAVDTAVYYCAKSYAGPISYYYYGLDVWGQGTTVTVSSGLGGLGGGGSGGGGSGGSSGVGSQSALTQPASVSGSPGQSVTISCTGTSSDIGRYNLVSWYQQHPGKAPKLMIYGGSKRPSGVSNRFSGSNSDNTASLTISGLRAEDEADYYCSSYASSSTPYVFGTGTKVTVL
# modifications: amino acid sequence for anti-UTTA scFv (Ab16)
# Molecular target: protein A56 (Vaccinia virus, UniProt Q01218)
Molecule,"Western blotting, binding affinity in a two-dimensional structure using PAGE",Western blot band on denatured protein
B1,linear multiple bands were identified,–
B2,binding did not occur,many weak bands with small sizes were observed or no band was observed
B3,a linear single band was identified,many weak bands with small sizes were observed or no band was observed
B4,linear multiple bands were identified,many weak bands with small sizes were observed or no band was observed
